Experimental data from publication doi:10.1101/2024.02.12.579961 (bioRxiv, 2024).

Molecular target: the molecule itself
Assay: non-reducing SDS-PAGE

B1: MBP-tagged IAA19/MSG2, recombinant (natural protein, Arabidopsis thaliana, UniProt O24409 1-197, looked up)
chain: MEKEGLGLEITELRLGLPGRDVAEKMMKKRAFTEMNMTSSGSNSDQCESGVVSSGGDAEKVNDSPAAKSQVVGWPPVCSYRKKNSCKEASTTKVGLGYVKVSMDGVPYLRKMDLGSSQGYDDLAFALDKLFGFRGIGVALKDGDNCEYVTIYEDKDGDWMLAGDVPWGMFLESCKRLRIMKRSDATGFGLQPRGVDE
Q: Does B1 bind?
A: Result: binds

B2: MBP-tagged IAA3/SHY2 (wild type), recombinant (natural protein, Arabidopsis thaliana, UniProt Q38822 1-189, looked up)
chain: MDEFVNLKETELRLGLPGTDNVCEAKERVSCCNNNNKRVLSTDTEKEIESSSRKTETSPPRKAQIVGWPPVRSYRKNNIQSKKNESEHEGQGIYVKVSMDGAPYLRKIDLSCYKGYSELLKALEVMFKFSVGEYFERDGYKGSDFVPTYEDKDGDWMLIGDVPWEMFICTCKRLRIMKGSEAKGLGCGV
Q: Does B2 bind?
A: Result: binds
